Measured values: paper PMC7720213, “Structure of eukaryotic DNA polymerase δ bound to the PCNA clamp while encircling DNA” (Proceedings of the National Academy of Sciences of the …, 2020)

B1: S.c. DNA polymerase δ regulatory subunit Pol32 (natural protein, S. cerevisiae)
chain: MDQKASYFINEKLFTEVKPVLFTDLIHHLKIGPSMAKKLMFDYYKQTTNAKYNCVVICCYKDQTIKIIHDLSNIPQQDSIIDCFIYAFNPMDSFIPYYDIIDQKDCLTIKNSYELKVSESSKIIERTKTLEEKSKPLVRPTARSKTTPEETTGRKSKSKDMGLRSTALLAKMKKDRDDKETSRQNELRKRKEENLQKINKQNPEREAQMKELNNLFVEDDLDTEEVNGGSKPNSPKETDSNDKDKNNDDLEDLLETTAEDSLMDVPKIQQTKPSETEHSKEPKSEEEPSSFIDEDGYIVTKRPATSTPPRKPSPVVKRALSSSKKQETPSSNKRLKKQGTLESFFKRKAK
notes: Pol32, regulatory subunit of Saccharomyces cerevisiae DNA polymerase δ; Stood in the assay as part of the three-subunit Pol δ
B2: S.c. proliferating cell nuclear antigen (PCNA) sliding clamp (natural protein, S. cerevisiae)
chain: MLEAKFEEASLFKRIIDGFKDCVQLVNFQCKEDGIIAQAVDDSRVLLVSLEIGVEAFQEYRCDHPVTLGMDLTSLSKILRCGNNTDTLTLIADNTPDSIILLFEDTKKDRIAEYSLKLMDIDADFLKIEELQYDSTLSLPSSEFSKIVRDLSQLSDSINIMITKETIKFVADGDIGSGSVIIKPFVDMEHPETSIKLEMDQPVDLTFGAKYLLDIIKGSSLSDRVGIRLSSEAPALFQFDLKSGFLQFFLAPKFNDEE
notes: PCNA of Saccharomyces cerevisiae, homotrimeric ring; also called PCNA clamp; PCNA trimer; source: purified
B3: T/P DNA (38-nt template / 25-nt primer) (dsDNA)
DNA 1: CTGCACGAATTAAGCAATTCGTAATCATGGTCATAGCT
DNA 2: AGCTATGACCATGATTACGAATTGC
modifications: primer 3'-terminal dideoxy-C
B4: 62-mer ssDNA (ssDNA)
DNA: ATGCTTAGCCTGAGGACTATTCTACTTAACGCGAGTTACGTGACGGTATCTTATCCGGCGC
B5: S.c. DNA polymerase δ regulatory subunit Pol31 (natural protein, S. cerevisiae)
chain: MDALLTKFNEDRSLQDENLSQPRTRVRIVDDNLYNKSNPFQLCYKKRDYGSQYYHIYQYRLKTFRERVLKECDKRWDAGFTLNGQLVLKKDKVLDIQGNQPCWCVGSIYCEMKYKPNVLDEVINDTYGAPDLTKSYTDKEGGSDEIMLEDESGRVLLVGDFIRSTPFITGVVVGILGMEAEAGTFQVLDICYPTPLPQNPFPAPIATCPTRGKIALVSGLNLNNTSPDRLLRLEILREFLMGRINNKIDDISLIGRLLICGNSVDFDIKSVNKDELMISLTEFSKFLHNILPSISVDIMPGTNDPSDKSLPQQPFHKSLFDKSLESYFNGSNKEILNLVTNPYEFSYNGVDVLAVSGKNINDICKYVIPSNDNGESENKVEEGESNDFKDDIEHRLDLMECTMKWQNIAPTAPDTLWCYPYTDKDPFVLDKWPHVYIVANQPYFGTRVVEIGGKNIKIISVPEFSSTGMIILLDLETLEAETVKIDI
notes: Pol31 (B subunit), regulatory subunit of Saccharomyces cerevisiae DNA polymerase δ; Stood in the assay as part of the three-subunit Pol δ; also called B subunit

How the values were obtained:
[1] = biological target: B5; test: cryo-EM structure; 8.0 uM PCNA and 6.0 uM T/P DNA mixed in Hepes-KOH pH 7.5, DTT, MgAc, KOAc, potassium glutamate, 0.4 mM ddTTP, then 3.3 uM Pol δ added; PCNA:Pol δ:T/P DNA 1.2:1:0.9; on ice 1 h; 3.2 Å map; conditions: both partners purified
[2] = biological target: T1, S.c. DNA polymerase δ (Pol3-Pol31-Pol32) harboring the D321S and E323S mutations in the exonuclease domain of … (S. cerevisiae, UniProt P15436 1-1097; P46957 1-487; P47110 1-350, D321S | E323S); test: as above; conditions: both partners purified
T1 construct: Pol3, catalytic subunit of Saccharomyces cerevisiae DNA polymerase δ; Pol31 (B subunit), regulatory subunit of Saccharomyces cerevisiae DNA polymerase δ; Pol32, regulatory subunit of Saccharomyces cerevisiae DNA polymerase δ; also called Pol δ^exo-; Pol δ; copies: + +

[3] = biological target: T2, S.c. DNA polymerase δ catalytic subunit Pol3 with the D321S and E323S mutations in the exonuclease active site (S. cerevisiae, UniProt P15436 1-1097, D321S | E323S); test: as above; conditions: both partners purified
T2 construct: Pol3, catalytic subunit of Saccharomyces cerevisiae DNA polymerase δ; carries a 4Fe-4S cluster (CysB) and a zinc finger (CysA); Stood in the assay as part of the three-subunit Pol δ; also called catalytic subunit of Pol δ^exo-
T2 sequence: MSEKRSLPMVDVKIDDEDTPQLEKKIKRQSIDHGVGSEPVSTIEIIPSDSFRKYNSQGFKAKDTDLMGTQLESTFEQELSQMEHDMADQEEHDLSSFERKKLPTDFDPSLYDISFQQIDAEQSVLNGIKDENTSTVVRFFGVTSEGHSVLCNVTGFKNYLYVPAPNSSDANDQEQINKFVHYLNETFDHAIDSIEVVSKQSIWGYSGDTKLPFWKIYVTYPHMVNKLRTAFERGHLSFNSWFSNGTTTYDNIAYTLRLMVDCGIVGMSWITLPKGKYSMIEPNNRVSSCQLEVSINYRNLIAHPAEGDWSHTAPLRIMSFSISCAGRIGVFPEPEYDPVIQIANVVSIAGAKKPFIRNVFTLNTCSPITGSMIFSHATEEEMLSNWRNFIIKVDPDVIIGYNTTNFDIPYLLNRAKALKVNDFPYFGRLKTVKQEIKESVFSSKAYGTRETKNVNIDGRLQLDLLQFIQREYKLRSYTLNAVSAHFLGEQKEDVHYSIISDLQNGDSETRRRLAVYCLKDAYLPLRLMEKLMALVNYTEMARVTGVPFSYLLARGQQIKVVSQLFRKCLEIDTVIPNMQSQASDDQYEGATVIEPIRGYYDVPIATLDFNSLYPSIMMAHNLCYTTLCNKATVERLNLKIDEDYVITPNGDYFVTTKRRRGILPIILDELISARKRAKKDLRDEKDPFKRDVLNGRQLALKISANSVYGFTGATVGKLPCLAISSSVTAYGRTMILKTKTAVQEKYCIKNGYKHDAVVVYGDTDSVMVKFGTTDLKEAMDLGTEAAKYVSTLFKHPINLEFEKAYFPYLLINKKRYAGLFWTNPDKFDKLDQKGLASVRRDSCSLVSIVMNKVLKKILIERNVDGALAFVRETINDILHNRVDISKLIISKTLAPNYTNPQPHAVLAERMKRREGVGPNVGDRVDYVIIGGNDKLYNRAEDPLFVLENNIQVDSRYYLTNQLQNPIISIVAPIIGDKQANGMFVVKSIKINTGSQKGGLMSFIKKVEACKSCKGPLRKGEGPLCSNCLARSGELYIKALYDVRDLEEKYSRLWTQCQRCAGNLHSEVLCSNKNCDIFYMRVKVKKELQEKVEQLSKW

[4] = biological target: the molecule itself; test: as above
[5] = biological target: Pol delta exo- (Pol3-Pol31-Pol32);PCNA (Saccharomyces cerevisiae;Saccharomyces …, UniProt P15436;P46957;P47110;P15873 1-1097;1-487;1-350;1-258, D321S;E323S|); test: cryo-EM 3.2 A; ddTTP; 4Fe-4S cluster, Zn2+; EMSA: 50 mM Hepes pH 7.5, 5 mM MgCl2, 50 mM NaOAc, 1 mM DTT, 6% glycerol, 90 min at room temperature; 8% native PAGE in 40 mM Tris, 150 mM glycine pH 8.0; conditions: protein: recombinant;recombinant; tags: ;; copies: 1;1;1;3; 25 bp, 5' overhang 13 nt on template
[6] = biological target: Pol31-Pol32 complex (Saccharomyces cerevisiae, UniProt P46957;P47110 1-487;1-350); test: EMSA; 5 mM Mg2+; 0-5 uM protein, 0.5 nM DNA; EMSA: 50 mM Hepes pH 7.5, 5 mM MgCl2, 50 mM NaOAc, 1 mM DTT, 6% glycerol, 90 min at room temperature; 8% native PAGE in 40 mM Tris, 150 mM glycine pH 8.0; conditions: protein: recombinant; tags: GST tag removed with PreScission protease; copies: 1;1; label: 5'-32P; single strand

Binder: B1
- binding result [1]: binds

Binder: B2
- binding result [2]: binds
- binding result [3]: binds
- stoichiometry N [4]: 3

Binder: B3
- binding result [5]: binds

Binder: B4
- binding result [6]: binds

Binder: B5
- binding result [3]: binds
